Source: patent publication US10208121B2, “Anti-Axl antagonistic antibodies” (BERGEN TEKNOLOGIOVERFORING AS, priority 2014, dated 2019)
“Also recorded” adds a separate entry of the source.

T1: Mer (rhMer-Fc chimera) (Homo sapiens, UniProt Q12866)
T1 construct: Soluble recombinant antigens corresponding to the extracellular domains of members of the human TAM receptor family; purchased R&D Systems 891-MR
T1 sequence (Q12866 21-505 limits assumed): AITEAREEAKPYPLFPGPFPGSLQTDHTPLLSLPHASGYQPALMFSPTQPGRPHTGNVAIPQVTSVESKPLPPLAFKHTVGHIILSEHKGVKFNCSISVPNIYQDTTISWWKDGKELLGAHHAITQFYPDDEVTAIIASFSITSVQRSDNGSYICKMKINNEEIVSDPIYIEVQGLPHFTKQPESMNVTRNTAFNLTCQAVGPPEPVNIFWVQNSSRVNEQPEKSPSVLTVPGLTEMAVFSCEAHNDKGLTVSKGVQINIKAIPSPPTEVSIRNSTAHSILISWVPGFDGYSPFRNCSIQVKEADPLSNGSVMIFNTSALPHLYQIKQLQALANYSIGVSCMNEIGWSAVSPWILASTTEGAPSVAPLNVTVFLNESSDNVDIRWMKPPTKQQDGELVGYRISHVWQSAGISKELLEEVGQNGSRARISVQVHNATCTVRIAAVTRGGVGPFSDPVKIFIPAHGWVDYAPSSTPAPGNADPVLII


Legend:
[1] = test system: Axl-positive breast cancer cell line MDA-MB-231; assay: Flow cytometry binding to Axl-positive MDA-MB-231 cells; format: cell-based, human; settings: different antibody concentrations, MFI
Procedure: Different concentrations of mouse and chimeric antibodies were tested in flow cytometry for binding to triple-negative breast cancer cell line MDA-MB-231. The bound mouse and chimeric antibodies were detected with APC-conjugated donkey F(ab′)2 fragments specific for either mouse IgG (H+L), 1:500 dilution, or human IgG (H+L), 1:300 dilution, respectively (both from Jackson ImmunoResearch). The cell staining was measured using Accuri C6 flow cytometer (BD Biosciences). MFI, geometric mean fluorescence intensity.
The purified chimeric antibodies (>95% purity) were analysed for binding to Axl-positive breast cancer cell line MDA-MB-231 in flow cytometry. For comparison, the parental mouse MAbs 10C9 and 10G5 were used. For flow cytometry, the adherent cells in culture were washed with PBS, detached by treatment with trypsin (0.25%) for 1 min and hitting culture dish for full detachment. Trypsin was quenched by adding into the tissue flask the complete medium followed by washing the cells with PBS. During the washing steps, the cells were collected by centrifugation at 200 g for 5 min. The antibody was diluted for total concentration in PBS containing 0.02% bovine serum albumin (BSA). Cell staining was performed using 200 μL of cell suspension comprising 10^5 cells for 20 min at room temperature. The cell-bound antibodies were detected with APC-conjugated donkey anti-human or anti-mouse, respectively, IgG (H+L) F(ab′)2 fragments (Jackson ImmunoResearch). After two washing steps with PBS/0.02% BSA, the cells were resuspended in 200 μL and kept on ice before analysis on Accuri C6 flow cytometer (BD Biosciences).

[2] = test system: cyno-Axl (Axl receptor from cynomolgus monkey); assay: Biacore binding analysis on immobilized cyno-Axl; parameters: species or system Macaca fascicularis; settings: 10 μg/mL, 25° C.
Chain of cyno-Axl (Axl receptor from cynomolgus monkey) (as listed by the source): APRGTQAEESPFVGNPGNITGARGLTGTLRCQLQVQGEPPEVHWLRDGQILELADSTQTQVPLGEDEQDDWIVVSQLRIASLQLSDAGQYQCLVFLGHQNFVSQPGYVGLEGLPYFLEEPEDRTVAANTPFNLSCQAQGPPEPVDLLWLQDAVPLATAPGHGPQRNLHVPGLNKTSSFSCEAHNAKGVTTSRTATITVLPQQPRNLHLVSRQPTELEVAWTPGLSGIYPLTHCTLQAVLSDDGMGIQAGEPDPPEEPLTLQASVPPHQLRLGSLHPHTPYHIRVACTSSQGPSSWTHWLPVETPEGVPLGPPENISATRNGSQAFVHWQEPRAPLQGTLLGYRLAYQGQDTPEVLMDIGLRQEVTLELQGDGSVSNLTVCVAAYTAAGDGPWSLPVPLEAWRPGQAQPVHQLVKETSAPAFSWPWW
Procedure: The sequence of Axl receptor from cynomolgus monkey (Macaca fascicularis; SEQ ID NO.43) was retrieved from WO2009062690A1. Based on the sequence, recombinant extracellular domain of cyno-Axl was generated by transient expression in CHO cells as a fusion protein with human Fc. The recombinant cyno-Axl-Fc was purified to homogeneity using Protein A-Sepharose (GE Healthcare). The binding experiments were performed using Biacore 3000 instrument (GE Healthcare) at 25° C. The soluble recombinant antigens corresponding to human Axl (rhAxl-Fc chimera; R&D Systems, Cat. no. 154-AL) and cyno-Axl were immobilized on the surface of CM5 sensor chip using amine coupling at the surface density of 775 and 880 RU, respectively. The Biacore runs were performed in an automatic mode using Binding analysis wizard.
The sample containing either MAb 10C9, MAb 10G5 or human Axl-specific MAb 5F11 (control) at concentration 10 μg/mL in HBS-EP buffer (GE Healthcare) was injected over the surfaces with immobilized antigens at flow rate of 30 μL/min for 3 min (association) followed by 5 min dissociation.

MDA-MB-231 = assay: Growth of MDA-MB-231 cells in three-dimensional (3D) organotypic model; format: cell-based, human; settings: for growth and tumour mass development in extracellular matrix: MDA-MB-231, 50-100 μg/mL, day 6, versus control irrelevant IgG
Procedure: A highly aggressive triple-negative human breast cancer cell line MDA-MB-231 (ATCC® HTB-26™) was cultured according to recommended conditions in Dulbecco's Modified Eagle's Medium/Nutrient Mixture F-12 Ham medium supplemented with 10% foetal bovine serum (FBS), glutamine and penicillin and streptomycin. The cells were pre-treated in suspension for at least 1 hour at 37° C., to ensure proper binding of antibodies on the cell surface before they were placed in extracellular matrix. The cells cultures were observed every day and fresh treatments were done every other day. The antibodies were used at concentrations 50-100 μg/mL. Imaging of coverslip 3D assay (35 mm dish) was done on a NIKON light microscopy using both Phase contrast and Hoffman optics. Already at day 3, difference in growth of cells treated with either MAb 10C9 or MAb10G5 and cells treated with a control irrelevant IgG was observed.

Mer (rhMer-Fc chimera) = biological target: T1, Mer (rhMer-Fc chimera); assay: Biacore binding analysis on immobilized human Mer; settings: 10 μg/mL, 25° C.
Procedure: All binding experiments were performed using Biacore 3000 instrument (GE Healthcare) at 25° C. Soluble recombinant antigens corresponding to the extracellular domains of members of the human TAM receptor family, Axl (rhAxl-Fc chimera; R&D Systems, Cat. no. 154-AL), Mer (rhMer-Fc chimera; R&D Systems, Cat. no. 891-MR) and Tyro3 (rhTyro3/Dtk-Fc chimera; R&D Systems, Cat. no. 859-DK) were immobilized on the surface of CM5 sensor chip using amine coupling at the surface density of 393.0, 303.6 and 364.0 resonance units (RU), respectively. The Biacore run was performed in an automatic mode using Binding analysis wizard. Samples containing either MAb 10C9 or MAb 10G5 at concentration 10 μg/mL in HBS-EP buffer (GE Healthcare) were injected over the surfaces with immobilized antigens at flow rate of 30 μL/min for 3 min (association) followed by 5 min dissociation.

Row | Molecule | binding to MDA-MB-231 cells in flow cytometry [1] | binding to Axl from cynomolgus monkey [2] | binding to Axl from cynomolgus monkey ([2]; listed as 1009) | growth and tumour mass development in extracellular matrix (MDA-MB-231) | binding to human Mer (Mer (rhMer-Fc chimera)) | binding to human Mer (Mer (rhMer-Fc chimera); listed as 1009) | viability of treated cells (nuclei staining) (MDA-MB-231; MDA-MB-231 3D culture)
1 | 10C9: mouse anti-Axl monoclonal antibody from hybridoma UT-10C9-B9, IgG2b; VH SEQ ID NO: 3, VL SEQ ID NO: 4 (antibody, listed as Mus musculus, V domains shown) VH: QVQLQQPGPELVKPGASVKISCKTSDYNFTRYYIHWVKQRPGQGLEWIGWIYPGTGDSKYNEKFKGRATLTADTSSSTAYMQLSSQTSEDSAVYFCARNGNYWYFDVWGAGTAVTVSS VL: DIVMTQAAPSGPVTPGESVSISCRSSKSLLHSNGNTYLYWFLQRPGQSPQLLIYRMSNLASGVPDRFSGSGSGTAFTLRISRVEAEDVGIYYCMQHREYPFTFGGGTKLEIK | Dose-dependent binding | strong and specific interaction | bind strongly | significantly inhibited growth and tumour mass development | no binding | no significant binding | –
2 | 10G5: mouse anti-Axl monoclonal antibody from hybridoma WR-10G5-E5, IgG1; VH SEQ ID NO: 21, VL SEQ ID NO: 22 (antibody, listed as Mus musculus, V domains shown) VH: QVQLQQSGAELVRPGASVKLSCKASGYSFTDFYINWVRQRPGQGLEWIARIFPGGDNTYYNEKFKGKATLTAEESSSTAYIQLSSLTSEDSAVYFCARRGLYYAMDYWGQGISVTVSS VL: DVLMTQTPLSLPVSLGDQASISCRSSQSLVHSNGIPYLHWYLQKPGQSPKLLIYRVSNRFSGVPDRFSGSGSGTDFTLKISRVEAEDLGVYFCSQGTHVPPTFGGGTKLEIK | – | bind strongly; also recorded: strong and specific interaction | – | significantly inhibited growth and tumour mass development | no significant binding | – | still viable
3 | c10G5: chimeric (mouse variable/human constant) IgG1 variant of antibody 10G5 (antibody, left off: a dimerising Fc or GST, chimeric (mouse variable/human constant) IgG1 variant of antibody 10G5) heavy: QVQLQQSGAELVRPGASVKLSCKASGYSFTDFYINWVRQRPGQGLEWIARIFPGGDNTYYNEKFKGKATLTAEESSSTAYIQLSSLTSEDSAVYFCARRGLYYAMDYWGQGISVTVSS light: DVLMTQTPLSLPVSLGDQASISCRSSQSLVHSNGIPYLHWYLQKPGQSPKLLIYRVSNRFSGVPDRFSGSGSGTDFTLKISRVEAEDLGVYFCSQGTHVPPTFGGGTKLEIK | Dose-dependent binding | – | – | – | – | – | –
